Test in all cases: fluorescence polarisation
For test [1], the target named is T1, chloroplast signal recognition particle 43-kDa protein (cpSRP43), wild type, full length (A. thaliana, UniProt O22265 57-373).
T1 sequence: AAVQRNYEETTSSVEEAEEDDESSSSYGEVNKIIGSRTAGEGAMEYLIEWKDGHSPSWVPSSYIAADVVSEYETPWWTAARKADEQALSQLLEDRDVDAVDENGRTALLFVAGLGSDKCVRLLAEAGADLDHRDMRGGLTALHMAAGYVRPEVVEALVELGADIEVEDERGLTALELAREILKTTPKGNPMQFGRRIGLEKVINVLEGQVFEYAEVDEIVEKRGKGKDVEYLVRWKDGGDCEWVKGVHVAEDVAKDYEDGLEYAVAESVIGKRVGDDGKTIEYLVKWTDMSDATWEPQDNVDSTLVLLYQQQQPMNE

The target of test [2] is T1, chloroplast signal recognition particle …. The source holds these as a separate data set.
Test [3] shares this target. This is another data set of the same source.

Like-named read-outs stand apart in the source and are kept apart here. No end group written: not given here.

One may read the Kd as the concentration at which binding is half-saturated. The low end stands for a tighter complex, the high end for a looser complex. As to GSFDPLGLADD (also: HiLyte Fluor 488 label, position not given here) [HiLyte Fluor 488-labeled L11 peptide], the Kd stood at 28 nM in test [1], 12 nM in test [2] and 710 nM in test [3].
As to QKQKAPPGTARRKRKAC (also: fluorescein label, position not given here) [fluorescein-labeled 54C peptide], the dissociation constant Kd worked out at 230 nM in test [1], 36 nM in test [2] and 5000 nM in test [3].
